Biological target: Xyloglucanase TpXEG12a from Talaromyces pinophilus (Talaromyces pinophilus)
Experiment: SEC; gel filtration on Superdex 75 Increase, 20 mM Tris-HCl, 150 mM NaCl, pH 7.5; calibrated with molecular mass standards

- stoichiometry N: 2
Substance: Xyloglucanase TpXEG12a from Talaromyces pinophilus (enzyme)
